Data reported in patent US20150093398A1, “Methods and Compositions for Treating or Preventing Cancer” (MERCK SHARP & DOHME CORP., priority 2005, published 2015).

System: SJSA-1 osteosarcoma cells
Experiment: SJSA-1 osteosarcoma xenograft model (05-IGFR-12), dosing from day 18 post inoculation
Format: in vivo, female nude mouse (strain NU/NU)
Method: About 7 million SJSA-1 osteosarcoma cells were inoculated subcutaneously to the flank of each female nude mouse (strain NU/NU from Charles River, age ˜6 wks-old, average weight ˜20 gram). For the experiment set forth in Table 8, dosing was initiated on day 18 post inoculation, when the xenograft tumor reached an average size of about 100 mm^3. Anti-IGF1R antibody (19D12 Light chain F/Heavy chain A (as set forth above)) was given ip twice a week at the dose of either 0.02 mg, 0.1 and 0.5 mg per mouse, while cytotoxic Cytoxan (cyclophosphamide) was given ip twice per week at the dose of 100 mpk for a total of 3 injection during the course of the study. Xenograft tumor size was measured twice per week with a caliper and captured electronically by the LabCat program.

B1: 19D12: anti-IGF1R antibody: light chain variable region amino acids 20-128 of SEQ ID NO: 8, heavy chain variable region amino acids 20-137 of SEQ ID NO: 10 (antibody, V domains shown)
VL: MSPSQLIGFLLLWVPASRGEIVLTQSPGTLSVSPGERATLSCRASQSIGSSLHWYQQKPGQAPRLLIKYASQSLSGIPDRFSGSGSGTDFTLTISRLEPEDFAVYYCHQSSRLPHTFGQGTKVEIKRT
VH: MEFGLSWVFLVAILKGVQCEVQLVQSGGGLVKPGGSLRLSCAASGFTFSSFAMHWVRQAPGKGLEWISVIDTRGATYYADSVKGRFTISRDNAKNSLYLQMNSLRAEDTAVYYCARLGNFYYGMDVWGQGTTVTVSS
modifications: variable regions only: LC 20-128, HC 20-137; constant regions lack entries
Mean Tumor size (0.02 mg 19D12, Day 0): 98 mm3
Mean Tumor size (0.02 mg 19D12, Day 3): 121 mm3
Mean Tumor size (0.02 mg 19D12, Day 7): 197 mm3
Mean Tumor size (0.02 mg 19D12, Day 10): 272 mm3
Mean Tumor size (0.02 mg 19D12, Day 14): 423 mm3
Mean Tumor size (0.02 mg 19D12, Day 17): 675 mm3
Mean Tumor size (0.1 mg 19D12, Day 0): 96 mm3
Mean Tumor size (0.1 mg 19D12, Day 3): 121 mm3
Mean Tumor size (0.1 mg 19D12, Day 7): 144 mm3
Mean Tumor size (0.1 mg 19D12, Day 10): 231 mm3
Mean Tumor size (0.1 mg 19D12, Day 14): 378 mm3
Mean Tumor size (0.1 mg 19D12, Day 17): 431 mm3
Mean Tumor size (0.1 mg 19D12, Day 21): 1037 mm3
Mean Tumor size (0.5 mg 19D12, Day 0): 96 mm3
Mean Tumor size (0.5 mg 19D12, Day 3): 103 mm3
Mean Tumor size (0.5 mg 19D12, Day 7): 122 mm3
Mean Tumor size (0.5 mg 19D12, Day 10): 115 mm3
Mean Tumor size (0.5 mg 19D12, Day 14): 282 mm3
Mean Tumor size (0.5 mg 19D12, Day 17): 435 mm3
Mean Tumor size (0.5 mg 19D12, Day 21): 890 mm3
growth inhibition of the osteosarcoma tumor (in words) (ip twice a week, 0.02, 0.1 or 0.5 mg per mouse, summary of Table 8): marked anti-IGF1R-dependent growth inhibition
